Results as given in doi:10.1101/2023.09.28.559889 (bioRxiv, 2023).

B1: NatT toxin (PA1030), His-tagged, co-expressed with NatR in E. coli (enzyme)
chain: SEIWRQCKGERHIRPLQGRLVRLVESQEQVATLQLVDTLEEQALLEELLESSKPPVPADAEPLHYLLKTPFRYPPLRWGSRFGRRHEPSLFYAALKLETAMAESAYYRCVLWSGMVVPPPSGRILSEHASFEAGWKVERGIRLQAPPFSDHEAALTDIADYRAPQELGSAMRSAGVQAFEYRSARCPERGCNVALFTPAAFTEKRPRNLTPWLCETTAGYVAFKPAHVPGSPKIFSWELFLVDGKLPHPA

How the values were obtained:
[1] = biological target: NatR antitoxin (PA1029), co-expressed with His-tagged NatT in E. coli (P. aeruginosa); experiment: crystal structure
[2] = biological target: NatT toxin (PA1030), His-tagged, co-expressed with NatR in E. coli (P. aeruginosa) (UniProt Q9I4U4); experiment: mass photometry
crystal structure = biological target: the molecule itself; experiment: crystal structure

Molecule | stoichiometry N [1] | stoichiometry N [2] | stoichiometry N (crystal structure)
NatR antitoxin (PA1029), co-expressed with His-tagged NatT in E. coli (natural protein) | 2 | 2 | 
B1 |  |  | 2
